“And” between values parts separate entries of the source, which are not always exact repeats. Equal entries are not always repeated.

As usually defined, the Kd is the free concentration of one partner at which half of the binding sites on the other are occupied at equilibrium, for simple one-to-one binding. Broadly, the EC50 is the midpoint of the concentration-response curve. What is called IC50 is the point on the concentration scale where inhibition reaches its midpoint.

Assay [1] addresses T1, human LAG-3 overexpressed on cells (human, UniProt P18627 23-525).
T1 sequence (looked up): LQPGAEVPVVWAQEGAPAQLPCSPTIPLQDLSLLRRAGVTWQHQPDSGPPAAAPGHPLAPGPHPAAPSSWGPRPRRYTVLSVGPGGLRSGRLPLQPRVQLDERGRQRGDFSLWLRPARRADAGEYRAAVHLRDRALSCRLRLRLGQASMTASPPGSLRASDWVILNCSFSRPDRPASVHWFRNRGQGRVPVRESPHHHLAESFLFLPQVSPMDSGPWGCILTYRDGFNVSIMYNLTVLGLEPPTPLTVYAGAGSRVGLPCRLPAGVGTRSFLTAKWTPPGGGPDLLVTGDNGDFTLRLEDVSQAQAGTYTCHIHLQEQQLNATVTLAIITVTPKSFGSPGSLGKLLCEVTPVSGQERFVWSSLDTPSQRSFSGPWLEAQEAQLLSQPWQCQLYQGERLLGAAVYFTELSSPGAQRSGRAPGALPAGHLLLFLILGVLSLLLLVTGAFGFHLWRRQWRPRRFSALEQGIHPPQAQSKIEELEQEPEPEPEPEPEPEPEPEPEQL
Put plainly: cell-based or functional assay.

The target in assay [2] is T1, human LAG-3 overexpressed on cells. Put plainly: cell-based or functional assay. This is another data set of the same source.
Assay [3] has as its target T2, recombinant human LAG-3 extracellular domain fused with mouse Fc (hLAG-3-mFc) (human, UniProt P18627 29-450).
T2 construct: range 29-450; Made in HEK293F cells; also called human LAG-3 antigen; wild-type (WT) LAG-3; not shown: mouse Fc (mFc) at the carboxy terminal
T2 sequence (looked up): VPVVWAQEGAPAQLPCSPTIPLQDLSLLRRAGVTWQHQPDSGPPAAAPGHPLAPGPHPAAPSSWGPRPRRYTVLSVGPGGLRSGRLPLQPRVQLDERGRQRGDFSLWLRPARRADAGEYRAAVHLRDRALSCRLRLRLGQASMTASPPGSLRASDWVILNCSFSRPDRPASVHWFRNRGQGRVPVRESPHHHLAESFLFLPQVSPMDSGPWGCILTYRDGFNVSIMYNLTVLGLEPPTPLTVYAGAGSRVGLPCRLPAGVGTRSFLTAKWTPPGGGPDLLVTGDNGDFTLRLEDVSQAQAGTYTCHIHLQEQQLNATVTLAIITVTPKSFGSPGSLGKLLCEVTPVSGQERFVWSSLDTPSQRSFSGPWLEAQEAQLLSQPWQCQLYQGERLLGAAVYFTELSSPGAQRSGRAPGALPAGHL
The assay can be described thus: BLI (Octet QKe), 1:1 global fit. Here is the method:
(§1) After stabilization for 10 minutes in a buffer (#18-1042, Fortebio Inc.), immobilized antigen or antibody was washed out for 5 minutes with the buffer. The antibody or antigen desired for binding was prepared at different concentrations (0.94-60 nM) in a 96-well plate (#655209, Greiner Bio-One, USA) and subjected to the association reaction for 10 minutes followed by dissociation reaction for 10 minutes or 30 minutes.
For orientation: BLI is a label-free optical method that tracks binding on a fibre tip over time.

Assay [4] concerns the target T3, recombinant monkey LAG-3 fused with mouse Fc (MrhLAG-3-mFc) (monkey).
T3 construct: also called monkey LAG-3 antigen
Put plainly: BLI (Octet QKe), 1:1 global fit. Here is the method: as §1

In assay [5] the target is T4, recombinant mouse LAG-3 fused with mouse Fc (mLAG-Fc) (mouse, UniProt Q61790 24-442, limits assumed).
T4 construct: also called mouse LAG-3 antigen; not shown: mouse Fc (mFc) at the carboxy terminal
T4 sequence (looked up): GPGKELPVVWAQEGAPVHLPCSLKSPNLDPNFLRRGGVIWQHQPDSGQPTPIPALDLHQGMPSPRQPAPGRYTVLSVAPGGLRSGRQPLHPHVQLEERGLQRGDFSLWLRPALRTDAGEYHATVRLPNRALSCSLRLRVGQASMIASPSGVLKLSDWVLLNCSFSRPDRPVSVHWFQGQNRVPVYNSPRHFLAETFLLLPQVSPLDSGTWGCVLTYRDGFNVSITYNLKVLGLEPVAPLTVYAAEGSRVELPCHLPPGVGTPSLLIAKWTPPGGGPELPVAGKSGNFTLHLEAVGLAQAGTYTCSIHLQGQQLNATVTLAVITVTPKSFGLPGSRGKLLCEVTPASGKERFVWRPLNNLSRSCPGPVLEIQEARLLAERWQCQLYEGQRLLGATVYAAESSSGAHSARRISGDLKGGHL
The assay can be described thus: BLI (Octet QKe), 1:1 global fit. The method, then:
as §1

In assay [6] the target is T1, human LAG-3 overexpressed on cells. The assay can be described thus: flow cytometry, HEK293E cells overexpressing human LAG-3. The method, then:
(§2) After that, the cells were washed three times with PBS containing 2% FBS and then subjected to the reaction for 30 minutes at 4° C. with anti-human IgG antibody (#FI-3000, Vectorlabs) linked with FITC fluorescent. The cells were washed by the same washing process as above followed by suspension in 0.2 ml PBS containing 2% FBS. The cells were then analyzed by FACSCanto II flow cytometer.
Background: A flow cytometer gives signals particle by particle.

Assay [7] addresses T5, mouse LAG-3 overexpressed on HEK293E cells (mouse, UniProt Q61790 24-521).
T5 construct: whole, on cells; also called HEK293E-mLAG3; mLAG3 (Mouse)
T5 sequence (looked up): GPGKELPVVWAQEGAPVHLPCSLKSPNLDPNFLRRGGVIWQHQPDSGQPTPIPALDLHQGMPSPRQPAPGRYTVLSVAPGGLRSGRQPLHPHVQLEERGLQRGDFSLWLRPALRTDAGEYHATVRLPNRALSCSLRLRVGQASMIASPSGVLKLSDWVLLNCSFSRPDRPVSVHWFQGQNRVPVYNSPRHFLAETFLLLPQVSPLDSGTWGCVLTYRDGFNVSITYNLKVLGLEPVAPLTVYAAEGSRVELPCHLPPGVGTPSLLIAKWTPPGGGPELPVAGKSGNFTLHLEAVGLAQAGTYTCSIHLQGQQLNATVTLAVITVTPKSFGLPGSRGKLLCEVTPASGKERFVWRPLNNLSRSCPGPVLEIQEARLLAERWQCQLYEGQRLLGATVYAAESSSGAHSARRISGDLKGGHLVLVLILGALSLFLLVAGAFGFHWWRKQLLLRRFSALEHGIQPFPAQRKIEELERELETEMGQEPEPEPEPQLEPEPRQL
The assay can be described thus: flow cytometry, HEK293E cells overexpressing mouse LAG-3. Here is the method: as §2

Assay [8] addresses T2, recombinant human LAG-3 extracellular …. Put plainly: flow cytometry, inhibition of LAG-3-mFc binding to Raji cells (MHC class II). Here is the method: After that, the antigen-antibody mixture was reacted with the prepared cells for 30 minutes at 4° C. […] After washing them in the same manner as above and suspending them in 0.2 ml PBS containing 2% FBS, analysis was made using CytoFLEX flow cytometer (Beckman coulter, USA)

B1: human anti-LAG-3 monoclonal antibody 1E09 (antibody, V domains shown)
VH: QVQLVQSGGDLVKPGGSLRLSCAASGFSFSDHYMNWIRQAPGKGLEWVAYIDTSATYIYYADSVKGRFTISRDNAKNSLYLQMNSLRAEDTAVYYCARDNWGSLDYWGQGALVTVSS
VL: DIQMTQSPSSLSPSVGDRVTITCQASQEISIYLNWYQQKPGKAPKLLIYDASNLETGVPSRFSGSGSGTDFTLTISSLQPEDFATYYCQQTYITPYTFGQGTKLDIK
notes: Tested as full IgG converted from scFv; also called LAG-3-1E09; Parent (1E09)
Take B1: the “EC50 value representing the capacity of recovering the inhibition” value in assay [1] stood at 0.0578 µg/mL. In assay [1], the “activity against the control antibody (fold)” value is around 2.9 times. For the same molecule, the “EC50 (µg/ml), LAG3/MHC class II Blockade bioassay” value in assay [2] was 0.0688 µg/mL and 0.186 µg/mL. In addition, the values for the Kd in assay [3], in assay [4] and in assay [5] were 91.8 pM, 328 pM and 596 pM, respectively. Besides, the EC50 in assay [6] turned out to be 0.0757 µg/mL; in assay [7], 1.5 µg/mL. Further, the IC50 in assay [8] is 25100 pM.

For the origin of these results see patent publication US20210238283A1 (Y BIOLOGICS, published 2021).
